T1: AP2-G D1 (Plasmodium falciparum, UniProt Q8I5I9 2123-2245)
T1 sequence: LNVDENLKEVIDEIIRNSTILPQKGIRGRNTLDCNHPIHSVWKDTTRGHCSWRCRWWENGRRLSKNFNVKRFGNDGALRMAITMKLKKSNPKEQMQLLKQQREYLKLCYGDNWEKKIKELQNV


target: T1, AP2-G D1; assay: gcPBM; about 25 ug protein; PBS, 1% milk, 0.2 mg/ml BSA, salmon testes DNA, 0.03% Triton X-100; settings: tags: N-terminal GST (pGEX-4T-1), kept; label: surface-attached array probe

Binder	binding signal
XGTACX_site4080 (dsDNA) DNA 1: AATACAATTGAAAATTGTACTTTGTTTTTTATAAAT DNA 2: ATTTATAAAAAACAAAGTACAATTTTCAATTGTATT	11.3 ln median PBM intensity, better of two orientations
XGTACX_site4821 (dsDNA) DNA 1: AATAAAACATCATCATGTACAAAATTCGTCTTTGTA DNA 2: TACAAAGACGAATTTTGTACATGATGATGTTTTATT	10.6 ln median PBM intensity, better of two orientations
XGTACX_site8520 (dsDNA) DNA 1: ATATGAAAAAGAACTTGTACTAAAGTGGCATATTAT DNA 2: ATAATATGCCACTTTAGTACAAGTTCTTTTTCATAT	11.3 ln median PBM intensity, better of two orientations
XGTACX_site1904 (dsDNA) DNA 1: TTGACATATAAGATATGTACTAATACACACACATAT DNA 2: ATATGTGTGTGTATTAGTACATATCTTATATGTCAA	11.2 ln median PBM intensity, better of two orientations
XGTACX_site1104 (dsDNA) DNA 1: ACCATATAATTTTTTTGTACATAATGATTTTTTTTT DNA 2: AAAAAAAAATCATTATGTACAAAAAAATTATATGGT	11.1 ln median PBM intensity, better of two orientations
XGTACX_site7465 (dsDNA) DNA 1: TTTAATTCTTATATTTGTACAGATTCATAATTAAAT DNA 2: ATTTAATTATGAATCTGTACAAATATAAGAATTAAA	11.2 ln median PBM intensity, better of two orientations
XGTACX_negctrl_site442 (dsDNA) DNA 1: TATTTTATTTCAAATCTTAATAATTGTAATTCTTCA DNA 2: TGAAGAATTACAATTATTAAGATTTGAAATAAAATA	8.99 ln median PBM intensity, better of two orientations
XGTACX_site5536 (dsDNA) DNA 1: TAACACACTAAGAAAAGTACTGATTAATATAATTTT DNA 2: AAAATTATATTAATCAGTACTTTTCTTAGTGTGTTA	11.2 ln median PBM intensity, better of two orientations
XGTACX_site2105 (dsDNA) DNA 1: ATTAATTATTGTAATTGTACATTTTATATATATCCA DNA 2: TGGATATATATAAAATGTACAATTACAATAATTAAT	11.1 ln median PBM intensity, better of two orientations
XGTACX_site2156 (dsDNA) DNA 1: AATATATATATATATAGTACATATTTTTATTCATTA DNA 2: TAATGAATAAAAATATGTACTATATATATATATATT	11.1 ln median PBM intensity, better of two orientations
XGTACX_site4343 (dsDNA) DNA 1: TTTATATACTATCAACGTACAAAAGTAATAAAAATA DNA 2: TATTTTTATTACTTTTGTACGTTGATAGTATATAAA	11.3 ln median PBM intensity, better of two orientations
XGTACX_site6203 (dsDNA) DNA 1: AAAAAAAAAAAATAAAGTACTAAATAATACATTATA DNA 2: TATAATGTATTATTTAGTACTTTATTTTTTTTTTTT	11.2 ln median PBM intensity, better of two orientations
XGTACX_site8765 (dsDNA) DNA 1: TTCCCTCCTCAAAATTGTACTAGAATAATAACATAA DNA 2: TTATGTTATTATTCTAGTACAATTTTGAGGAGGGAA	11 ln median PBM intensity, better of two orientations
XGTACX_site972 (dsDNA) DNA 1: GAAACAAAATTATTTTGTACATATGACTGTAGATAT DNA 2: ATATCTACAGTCATATGTACAAAATAATTTTGTTTC	11.2 ln median PBM intensity, better of two orientations
XGTACX_site4926 (dsDNA) DNA 1: ATCAACATTATGGTTAGTACTTAGTGAATTGTTAAT DNA 2: ATTAACAATTCACTAAGTACTAACCATAATGTTGAT	11 ln median PBM intensity, better of two orientations
XGTACX_site8441 (dsDNA) DNA 1: AATAATATCTGAAAATGTACATTTTATTATAAACAT DNA 2: ATGTTTATAATAAAATGTACATTTTCAGATATTATT	11.2 ln median PBM intensity, better of two orientations
XGTACX_site287 (dsDNA) DNA 1: AACAAAGAAAATACATGTACAAAAAATATTAACGAA DNA 2: TTCGTTAATATTTTTTGTACATGTATTTTCTTTGTT	11.2 ln median PBM intensity, better of two orientations
XGTACX_site4444 (dsDNA) DNA 1: ATATAATATTGAGTTTGTACATATATATATGAAGAT DNA 2: ATCTTCATATATATATGTACAAACTCAATATTATAT	11.1 ln median PBM intensity, better of two orientations
XGTACX_site7391 (dsDNA) DNA 1: TGTCAATCATATAAATGTACATTTTAAATGAGGTGT DNA 2: ACACCTCATTTAAAATGTACATTTATATGATTGACA	11.2 ln median PBM intensity, better of two orientations
XGTACX_site5075 (dsDNA) DNA 1: AAATGAAGATTTAAATGTACGAGAGGGTATACAAAT DNA 2: ATTTGTATACCCTCTCGTACATTTAAATCTTCATTT	11.2 ln median PBM intensity, better of two orientations
XGTACX_site8398 (dsDNA) DNA 1: TAAAAAATAAAATAATGTACATATGAATTATATATT DNA 2: AATATATAATTCATATGTACATTATTTTATTTTTTA	11.2 ln median PBM intensity, better of two orientations
XGTACX_site5843 (dsDNA) DNA 1: ATTTCAAAATATAGCTGTACAAAAAATGTAGATATA DNA 2: TATATCTACATTTTTTGTACAGCTATATTTTGAAAT	11.2 ln median PBM intensity, better of two orientations

Binder	binding signal
XGTACX_site841 (dsDNA) DNA 1: TATATATATAATATATGTACTGATATGCTATTTACT DNA 2: AGTAAATAGCATATCAGTACATATATTATATATATA	11 ln median PBM intensity, better of two orientations
XGTACX_site4853 (dsDNA) DNA 1: TTTGACACAATATTTTGTACGAAACTATTAATTCAA DNA 2: TTGAATTAATAGTTTCGTACAAAATATTGTGTCAAA	11 ln median PBM intensity, better of two orientations
XGTACX_site1414 (dsDNA) DNA 1: CTATAATATTATAACAGTACATAATATTATATATAT DNA 2: ATATATATAATATTATGTACTGTTATAATATTATAG	10.8 ln median PBM intensity, better of two orientations
XGTACX_site5674 (dsDNA) DNA 1: TATCTAGTTACTCCTTGTACATAATAAATGATTTTT DNA 2: AAAAATCATTTATTATGTACAAGGAGTAACTAGATA	11 ln median PBM intensity, better of two orientations
XGTACX_site2716 (dsDNA) DNA 1: AAAACTTTCCATGTTTGTACATAAAATATAATAATT DNA 2: AATTATTATATTTTATGTACAAACATGGAAAGTTTT	11.3 ln median PBM intensity, better of two orientations
XGTACX_site8705 (dsDNA) DNA 1: ACTAAAGTGTATCACTGTACAATTCTTCTCTTTTTT DNA 2: AAAAAAGAGAAGAATTGTACAGTGATACACTTTAGT	10.9 ln median PBM intensity, better of two orientations
XGTACX_site3331 (dsDNA) DNA 1: AAAAATTTTTTACATCGTACAGATATATATAATAAA DNA 2: TTTATTATATATATCTGTACGATGTAAAAAATTTTT	11.2 ln median PBM intensity, better of two orientations
XGTACX_site5487 (dsDNA) DNA 1: ACAAGTTTAACATTTCGTACTTATTGTGTTTTTTTT DNA 2: AAAAAAAACACAATAAGTACGAAATGTTAAACTTGT	10.9 ln median PBM intensity, better of two orientations
XGTACX_site3854 (dsDNA) DNA 1: AACCATTCTTCTAATTGTACATTGAAAAATCATGAT DNA 2: ATCATGATTTTTCAATGTACAATTAGAAGAATGGTT	11.1 ln median PBM intensity, better of two orientations
XGTACX_site4930 (dsDNA) DNA 1: TGGAGGATAGTTCACAGTACCCAGTAACTCTACGGA DNA 2: TCCGTAGAGTTACTGGGTACTGTGAACTATCCTCCA	10.9 ln median PBM intensity, better of two orientations
XGTACX_site8424 (dsDNA) DNA 1: TATTTTGTCATAGAACGTACTTATAAATATTTTTTT DNA 2: AAAAAAATATTTATAAGTACGTTCTATGACAAAATA	11.3 ln median PBM intensity, better of two orientations
XGTACX_site8946 (dsDNA) DNA 1: ATTAATCCAAATGAATGTACTTAATAATGTAATTAT DNA 2: ATAATTACATTATTAAGTACATTCATTTGGATTAAT	11.2 ln median PBM intensity, better of two orientations
XGTACX_site1856 (dsDNA) DNA 1: ATAAATTATAATAACTGTACAAAAATAATATATTCA DNA 2: TGAATATATTATTTTTGTACAGTTATTATAATTTAT	11.1 ln median PBM intensity, better of two orientations
XGTACX_site3550 (dsDNA) DNA 1: AATATTAAAGAATAATGTACAAAATAAAAGCAAAGA DNA 2: TCTTTGCTTTTATTTTGTACATTATTCTTTAATATT	10.9 ln median PBM intensity, better of two orientations
XGTACX_site8642 (dsDNA) DNA 1: CAAAGCATAGTATGATGTACAAATGTTCCTATAATA DNA 2: TATTATAGGAACATTTGTACATCATACTATGCTTTG	11 ln median PBM intensity, better of two orientations
XGTACX_site1874 (dsDNA) DNA 1: GGTATAAAGAAATTTTGTACATATTTCTCCCTTTAA DNA 2: TTAAAGGGAGAAATATGTACAAAATTTCTTTATACC	11.1 ln median PBM intensity, better of two orientations
XGTACX_site5737 (dsDNA) DNA 1: TAATGGAATACATATAGTACATAATATTACATACAT DNA 2: ATGTATGTAATATTATGTACTATATGTATTCCATTA	11.3 ln median PBM intensity, better of two orientations
XGTACX_site2945 (dsDNA) DNA 1: AAGCATAAAGTATATAGTACATATATATATATATAT DNA 2: ATATATATATATATATGTACTATATACTTTATGCTT	11.3 ln median PBM intensity, better of two orientations
XGTACX_site611 (dsDNA) DNA 1: TAATTTCTTATGTATTGTACAAATAATATATGATAT DNA 2: ATATCATATATTATTTGTACAATACATAAGAAATTA	11.3 ln median PBM intensity, better of two orientations
XGTACX_site1009 (dsDNA) DNA 1: AATGTATTTATTTTTTGTACATATCGTGTGTGTATT DNA 2: AATACACACACGATATGTACAAAAAATAAATACATT	11.2 ln median PBM intensity, better of two orientations
XGTACX_site7313 (dsDNA) DNA 1: TATATACTTTATAAATGTACATATAATGTATTATTT DNA 2: AAATAATACATTATATGTACATTTATAAAGTATATA	11.3 ln median PBM intensity, better of two orientations

— PMC11417369, “DNA sequence and chromatin differentiate sequence-specific transcription factor binding in the human malaria parasite Plasmodium falciparum”
